Results as given in patent US20220389400.

Target: amyloid β (UniProt P05067)
UniProt P05067, sequence (P05067 whole entry, looked up): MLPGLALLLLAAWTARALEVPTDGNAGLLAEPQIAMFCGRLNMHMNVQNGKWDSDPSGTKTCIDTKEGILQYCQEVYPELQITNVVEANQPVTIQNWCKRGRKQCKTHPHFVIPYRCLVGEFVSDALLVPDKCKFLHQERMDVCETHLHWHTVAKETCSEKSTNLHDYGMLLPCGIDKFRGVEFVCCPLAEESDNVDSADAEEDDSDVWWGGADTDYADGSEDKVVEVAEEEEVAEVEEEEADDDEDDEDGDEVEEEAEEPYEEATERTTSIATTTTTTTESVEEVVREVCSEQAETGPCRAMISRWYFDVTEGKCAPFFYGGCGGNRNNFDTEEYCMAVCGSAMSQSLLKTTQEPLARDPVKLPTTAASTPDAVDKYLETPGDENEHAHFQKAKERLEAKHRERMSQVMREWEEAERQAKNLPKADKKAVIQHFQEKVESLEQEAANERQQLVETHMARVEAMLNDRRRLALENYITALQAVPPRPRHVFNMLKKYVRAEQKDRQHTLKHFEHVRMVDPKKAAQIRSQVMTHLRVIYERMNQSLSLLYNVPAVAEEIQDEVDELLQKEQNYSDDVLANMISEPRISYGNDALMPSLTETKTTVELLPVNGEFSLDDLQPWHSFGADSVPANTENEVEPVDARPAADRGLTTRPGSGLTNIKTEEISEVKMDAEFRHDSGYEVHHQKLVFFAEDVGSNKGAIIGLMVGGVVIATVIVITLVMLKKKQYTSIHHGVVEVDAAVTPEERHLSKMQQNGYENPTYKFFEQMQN

Substance	activity to degrade amyloid β (Western blot)	protease activity; amount of amyloid β by Western blot (4G8)
NIaΔ20 (20 amino acids removed from the C-terminus)	showed activity similar to normal NIa	–
NIaΔ24 (24 amino acids removed from the C-terminus)	showed activity similar to normal NIa	–
NIaΔ28 (28 amino acids removed from the C-terminus)	showed significantly reduced activity	–
TuMV-derived NIa protease	–	amyloid β disappeared after treatment with NIa and its fragment for 1 hour
